Data on 4 substances can be found in US8652790B2, “Conformational entropy in molecular recognition” (The Trustees of the University of Pennsylvania, priority 2007, dated 2014).

Like-named read-outs stand apart in the source and are kept apart here.

In experiment [1] the target is T1, calcium-saturated calmodulin (CaM) (Homo sapiens, UniProt P0DP23).
T1 construct: made in house
To be noted: cited from earlier work; for −TΔSbind: Binding entropy at 308 K (Table 3), values cited per Table 2 footnotes; for −TΔSbinding^total: ITC, 308 K, from Marlow & Wand or Frederick et al.

The target in experiment [2] is T1, calcium-saturated calmodulin (CaM). The experiment is described as follows: Isothermal titration calorimetry of target domain peptides binding to calcium-saturated calmodulin. To be noted: for −TΔSbind: Binding entropy at 308 K (Table 3); for −TΔSbinding^total: ITC, 308 K, pH 6.5, 100 mM KCl, 6 mM CaCl2, standard errors. From the text: NMR methods are herein used to determine the dynamic response of human CaM (GenBank AAD45181) to the binding of six peptides representing the calmodulin-binding domains of the smooth muscle myosin light chain kinase (smMLCK; AAA69964) (Lukas, T. J. et al. Calmodulin binding domains: characterization of a phosphorylation and calmodulin binding site from myosin light chain kinase. Biochemistry 25, 1458-1464 (1986)), the neuronal and endothelial nitric oxide synthases (nNOS and eNOS; AAB60654 and AAH63294, respectively) (Zhang, M. & Vogel, H. J. Characterization of the calmodulin-binding domain of rat cerebellar nitric oxide synthase. J. Biol. Chem. 269, 981-985 (1994)), the calmodulin kinase kinase (CaMKKα; EDM05132) (Tokumitsu, H. et al. Calcium/calmodulin-dependent protein kinase kinase: identification of regulatory domains. Biochemistry 36, 12823-12827 (1997)), the calmodulin kinase I (CaMKI; EAW63990) Goldberg, J., Nairn, A. C. & Kuriyan, J. Structural basis for the autoinhibition of calcium/calmodulin-dependent protein kinase I. Cell 84, 875-887 (1996)) and the phosphodiesterase (PDE; AAD40738 (SEQ ID NO: 8)) Goldberg, J., Nairn, A. C. & Kuriyan, J. Structural basis for the autoinhibition of calcium/calmodulin-dependent protein kinase I. Cell 84, 875-887 (1996)).
Four of the peptides have been found previously by isothermal titration calorimetry to have roughly the same affinity for calmodulin but with widely different thermodynamic parameters defining the free energy of association. Wintrode, P. L. & Privalov, P. L. Energetics of target peptide recognition by calmodulin: a calorimetric study. […] J. Biol. Chem. 276, 14083-14091 (2001). The present study repeats isothermal titration calorimetry measurements at a temperature (35° C.) that is more optimal for solution NMR spectroscopy, and characterizes the thermodynamics of binding of two additional domains (FIG. 1). Shown in FIG. 1 are the Gibbs free energy (ΔG), enthalpy (ΔH) and entropy (−TΔS) for the formation of the six calcium-saturated CaM-peptide complexes at 35° C., as determined by isothermal titration calorimetry.
Calmodulin and synthetic peptides and complexes were prepared as described previously (Kranz, J. K. et al. A direct test of the reductionist approach to structural studies of calmodulin activity: relevance of peptide models of target proteins. J. Biol. Chem. 277, 16351-16354 (2002)) in 20 mM imidazole (pH 6.5), 100 mM KCl, 6 mM CaCl2 and 0.02% (w/v) NaN3. NMR samples were slightly (˜10%) over-titrated with peptide to ensure full complex formation. […] Data were obtained with a VP-isothermal titration calorimeter (Microcal) and analysed with the Origin (v.5) software.
Background: ITC needs no label: the signal is the heat of the interaction.

The target is the same in experiment [3]. The experiment is described as follows: Deuterium NMR relaxation of methyl-bearing side chains of target domains bound to CaM. To be noted: residue L20 of the bound target domain. From the text: Using deuterium NMR relaxation methods, fast motion of the methyl-bearing side-chains of the target domains in the six CaM complexes were examined. Muhandiram, D. R. et al., Measurement of H-2 T-1 and T-1p relaxation-times in uniformly C-13-Labeled and fractionally H-2-labeled proteins in solution. J. Am. Chem. Soc. 117, 11536-11544 (1995).
All bound target domain methyl resonances are well resolved in ^13C-single quantum heteronuclear correlation (^13C-HSQC) NMR spectra and deuterium relaxation parameters could be measured with high precision. The 76 methyl order parameters from 52 residues of the target domains in the six complexes are heterogeneously distributed with O^2axis values ranging from 0.13 to 0.95 (FIG. 5). […]
O^2axis parameters were determined from T1 and T1p deuterium relaxation (Muhandiram, D. R. et al. Measurement of H-2 T-1 and T-1p relaxation-times in uniformly C-13-Labeled and fractionally H-2-labeled proteins in solution. J. Am. Chem. Soc. 117, 11536-11544 (1995)) measured at two magnetic fields. Rotational correlation times and O^2NH were determined from ^15N relaxation (Farrow, N. A. et al. Backbone dynamics of a free and a phosphopeptide-complexed Src homology-2 domain studied by ^15N NMR relaxation. Biochemistry 33, 5984-6003 (1994)) obtained at two magnetic fields. O^2CαCO parameters were determined by transverse cross-correlated relaxation. […]

With “(COOH-FPNGFSRKRLMSKVLIVTTWSPLL [CaMKKα(p)]”, in experiment [1], the “−TΔSbind” value was “+90.0 ± 1.0 kJ/mol” and the “−TΔSbinding^total” value is listed as “+90.0 ± 1.0 kJ/mol”.

Consider RKKTFKEVANAVKISASLMG [eNOS(p)], for which, in experiment [2], the “−TΔSbind” value is listed as “+25.7 ± 0.8 kJ/mol” and the “−TΔSbinding^total” value is reported as “+25.7 ± 0.8 kJ/mol”.

Take QTEKMWQRLKGILRSLVKQ [PDE(p)]: the “O^2axis” value in experiment [3] is 0.165. In experiment [2], the “−TΔSbind” value is reported as “+33.9 ± 0.7 kJ/mol” and the “−TΔSbinding^total” value was “+33.9 ± 0.7 kJ/mol”.

On to “AKSKWKQAFNATAVVRHMRKLQ (listed as Homo sapiens) [CaMKI(p)]”, for which, in experiment [1], the “−TΔSbind” value is “+69.6 ± 0.9 kJ/mol” and the “−TΔSbinding^total” value was “+69.6 ± 0.9 kJ/mol”.
